Entries after “also recorded” stand apart in the source; their conditions may differ. Values belong to the compound of their own block, whether it stands above or below them. Where no end group is shown, it is not given here.
Key:
[1] = target: T1, Ribonuclease S (S-protein) (Bos taurus, UniProt P61823); assay: RNase S activity assay: increase in acid soluble nucleotides (A280) during hydrolysis of poly-(C), with or without 1 GHz RFMF; type: biochemical; details: for RNase S activity (digested polyC, A280) with the RFMF on compared with RFMF off: 37° C., as a function of reaction time
T1 construct: incubated with the rest of the Ribonuclease S complex, the S-protein; purchased Novagen, Madison, Wis
T1 sequence (P61823 47-150 limits assumed): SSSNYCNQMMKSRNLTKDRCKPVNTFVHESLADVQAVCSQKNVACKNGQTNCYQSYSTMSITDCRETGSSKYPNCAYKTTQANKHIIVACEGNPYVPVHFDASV
Protocol: In this example, ribonuclease S was associated with a gold nanocrystal modulator (the system described in Example 1). The activity of the enzyme was controlled by induction heating of the modulator using an alternating magnetic field. The frequency of the alternating magnetic field was 1 GHz in the radiofrequency range. Accordingly, the alternating magnetic field is referred to as a radiofrequency magnetic field (RFMF). The modulator S-peptide and S-protein complex was incubated with the substrate, polyC, in solution at 37° C. The tube containing the sample was placed in a coil inside which the RFMF was generated and switched on. Activity was monitored by measuring the amount of digested polyC in the solution. PolyC was purified from the rest of the sample by precipitation with trichloroacetic acid (TCA). The activity was the amount of digested polyC, which is determined by the optical absorption of the sample at 280 nm.
The assay for measuring RNase activity was based on the measurement of increase in acid soluble nucleotides during the hydrolysis of poly-(C) (FIG. 14(a)). All concentrations were expressed as the final concentrations in the assay system. The S-protein (Novagen, Madison, Wis.) with various concentrations of S18 peptide was pre-incubated in 20 mM Na-phosphate buffer, pH 6.0; 100 mM NaCl at 37° C. for 10 minutes followed by initiating the reaction by the addition of the substrate, 0.39 mM poly [C] (sigma). At different time intervals, aliquots were quenched with 5% trichloroacetic acid (TCA). The reaction mixture was kept on ice for 5 minutes and subsequently spun at 13,000 rpm (Biofuge A) for 10 min.
Alternating magnetic fields are generated by applying an electric current to a copper coil that coils around a quartz cuvette. Currents with frequencies in the radio frequency range are obtained by using a RF generator with a current amplifier. The RF is pulsed at 15 second intervals. The RF power levels are varied from −8 dBm to −0.1 dBm. The MF frequency used is 1 GHz.

thrombin = thrombin (Homo sapiens, UniProt P00734); details: cited from earlier work
[2] = target: T1, Ribonuclease S (S-protein); assay: RNase S activity assay: increase in acid soluble nucleotides (A280) during hydrolysis of poly-(C), with or without 1 GHz RFMF; type: biochemical

Compound: n-CGGKETAAAKFERQHMDS-c (S18 peptide)
Enzymatic activity when combined with S-protein, no RF (RF OFF state) [1]: restored the RNase S enzyme activity; also recorded: indistinguishable from that of the S15 native peptide

Compound: CGAGAG-AETEYDSLYPEDDL (CGAGAGAETEYDSLYPEDDL; thrombin inhibitory peptide: fibrin 414-27) [414-427, fibrin gamma chain fragment peptide]
Inhibition of thrombin activity (thrombin): strongly inhibit

Enzymatic activity when combined with S-protein, no RF (RF OFF state) [1]: full enzymatic activity
Compound: S15: residues 1 to 15 of the wild type S-peptide of ribonuclease S (KETAAAKFERQHMDS) [reference compound]
Enzymatic activity when combined with S-protein, no RF (RF OFF state) ([2]; listed as S-peptide with only the N-terminal 15 residues): completely restored the enzymatic activity

RF power at the 50% activity ([1]; 1 GHz RFMF): −4 dBm
Effect of higher RF levels on RNase S activity ([1]; RF −4, −3, −2 to −1 dBm, 1 GHz): drastic effect
Effect of low RF levels on RNase S activity ([1]; RF −8 to −5 dBm, 1 GHz): no significant effect
Activity once recovered after RF ([1]; after recovery time): fully active
RNase S activity (digested polyC, A280) with the RFMF on compared with RFMF off ([1]; modulator linked to S-peptide, RFMF 1 GHz, listed as Au-S18/S peptide): reduced
RNase S activity (digested polyC, A280) with the RFMF on compared with RFMF off ([1]; modulator linked to S-peptide, RFMF 1 GHz, listed as gold nanoparticle linked S-peptide): transiently halting the enzyme activity
RNase S activity (digested polyC, A280) with the RFMF on compared with RFMF off ([1]; modulator linked to S-peptide, RFMF 1 GHz, listed as modulator S-peptide-S-protein complex): less than with the RFMF off
Compound: Au-S18: S18 peptide covalently linked via N-terminal cysteine to a single 1.4 nm gold nanocrystal; tested complexed with S-protein (CGGKETAAAKFERQHMDS; also: linked via N-terminal cysteine to a 1.4 nm gold nanocrystal)
Enzymatic activity when combined with S-protein, no RF (RF OFF state) ([2]; listed as gold nanoparticle linked S-peptide): indistinguishable from the S-peptide without the nanoparticles
Enzymatic activity when combined with S-protein, no RF (RF OFF state) [1]: active
RNase S activity with the RFMF on compared with RFMF off as a function of modulator-S-peptide concentration ([1]; modulator linked to S-peptide, RFMF 1 GHz, entire concentration range): significantly less than with the RFMF off

Compound: CGAGAG-NGDFEEIPEEYL (CGAGAGNGDFEEIPEEYL; thrombin inhibitory peptide: hirudin 53-64) [hirugen53-64, fragment of Hirudin]
Affinity for thrombin (thrombin): very high affinity

Compound: Hirudin
Affinity for thrombin (thrombin): extremely high affinity
Inhibition of thrombin activity (thrombin): inhibits the enzymatic cleavage of fibrinogen by thrombin

Compound: NC(N)=NCCC[C@H](NC(=O)[C@@H]1CCCN1C(=O)[C@H](N)Cc1ccccc1)C(=O)CCl [PPACK, D-Phe-L-Pro-L-Arg-chloromenthy ketone]
Inhibition of thrombin activity (thrombin): inhibitory effect

Compound: CGAGAG-VRPEHPAETEYDSLYPEDDL (CGAGAGVRPEHPAETEYDSLYPEDDL; thrombin inhibitory peptide: fibrin 408-27) [408-427, fibrin gamma chain fragment peptide]
Inhibition of thrombin activity (thrombin): strongly inhibit

Source: patent US6953656B2, “Direct, externally imposed control of polypeptides” (Massachusetts Institute of Technology, priority 2000, dated 2005)
